The assay addresses sACE2_(2).S01-IgG1 (human) (UniProt Q9BYF1). Briefly: BLI. In general terms: BLI is a label-free optical method that tracks binding on a fibre tip over time.

Take “Delta-RBD (from UniProt P0DTC2) (domain or fragment)”: the Kd (commonly a measure of binding affinity in units of concentration) was found to be 1 nM.

(Values after PMC11342882.)
